Stoichiometry N (TrkB per BDNF dimer) data for 1 substance are collected here from paper PMC5958903.

In this assay the target is brain-derived neurotrophic factor. The experiment in a line: native gel or EMSA. For orientation: In EMSA bound probe runs differently from free probe, usually more slowly.

On to “soluble, recombinant extracellular domain of tropomyosin receptor kinase B (from UniProt Q16620 32-430)”, for which the stoichiometry N (TrkB per BDNF dimer) turned out to be 1.
